# Assay results published in the RNAGym collection of RNA variant scans (doi:10.1021/acssynbio.7b00057).
# B1: Pistol ribozyme (parent)
# chain: GGGUCGUUGUUCCAUAAUCGCGUGGAUAUGGCACGCAAGUUUCUACCGGGCACCGUAAAUGUCCGACUGGAGCCGUUCGGGCGGCUAUAAACAGACCUCAGGCCCGAAGCGUGGCGGCACCUGCCGCCGGUGGUAAAAAAGAUCGGAAGAGCACACGUCU
# Variants of: B1
# Experiment: aptazyme ON/OFF ratio, guanine; higher = stronger switching; co-transcriptional cleavage with and without guanine
row,Variant,aptazyme ON/OFF ratio
1,U7A G9A U11G C12U C13G,1.2
2,U7A G9A U11G C12U C13A,1.34
3,U7A G9A U10A U11A C12G C13A,1.09
4,U7A G9A U10A U11A C12G C13U,1.05
5,U7A G9A U10A U11A C12G C13G,1.21
6,U7A G9A U10G U11C C12U C13U,1.21
7,U7A G9A U10G U11C C12U C13G,1.18
8,U7A G9A U10G U11C C12U C13A,1.2
9,U7A G9A U10C U11C C12G,1.09
10,U7A G9A U10C U11C C12A,1.18
11,U7A G9A U10C U11C C12U,1.03
12,U7A G9C C13G,1.06
13,U7A G9C C13U,1.12
14,U7A G9C C13A,1.02
15,U7A G9A U11G C12G C13A,1.17
16,U7A G9A U11G C12G C13U,1.42
17,U7A G9A U11G C12G C13G,1.24
18,U7A G9A U10A U11C C12G C13A,1.08
19,U7A G9A U10A U11C C12G C13U,1.2
20,U7A G9A U10A U11C C12G C13G,1.42
21,U7A G9A U10G U11G C13A,1.25

row,Variant,aptazyme ON/OFF ratio
1,U7A G9A U10G U11G C13U,1.09
2,U7A G9A U10G U11G C13G,1.25
3,U7A G9A U10G U11C C12A,1.21
4,U7A G9A U10G U11C C12G,1.08
5,U7A G9A U10G U11C C12U,1.08
6,U7A C12U C13G,1.16
7,U7A C12U C13U,1.38
8,U7A C12U C13A,1.29
9,U7A G9A U10C C13U,1.12
10,U7A G9A U10C C13G,1.06
11,U7A G9A U10C C13A,1.06
12,U7A G9A U11C C12U,1.17
13,U7A G9A U11C C12G,1.18
14,U7A G9A U11C C12A,1.18
15,U7A G9C U10A U11C C12U,1.07
16,U7A G9C U10A U11C C12A,1.08
17,U7A G9C U10A U11C C12G,1.21
18,U7A G9A U11G C12G,1.29
19,U7A G9A U11G C12A,1.18
20,U7A G9A U11G C12U,2.19
21,U7A G9A U10C C12U C13A,1.08

row,Variant,aptazyme ON/OFF ratio
1,U7A G9A U10C C12U C13G,1.12
2,U7A G9A U10C C12U C13U,1.2
3,U7A G9A U10C C12G C13A,1.15
4,U7A G9A U10C C12G C13U,1.2
5,U7A G9A U10C C12G C13G,1.17
6,U7A G9A U10C C12A C13G,1.22
7,U7A G9A U10C C12A C13A,1.13
8,U7A G9A U10C C12A C13U,1.21
9,U7A G9A U10G U11A C12A,1.17
10,U7A G9A U10G U11A C12G,1.12
11,U7A G9A U10G U11A C12U,1.05
12,U7A G9A C12G C13G,1.24
13,U7A G9A C12G C13U,1.17
14,U7A G9A C12G C13A,1.12
15,U7A G9C U10A U11C C12U C13U,1.12
16,U7A G9C U10A U11C C12U C13A,1.1
17,U7A G9C U10A U11C C12U C13G,1.13
18,U7A G9A U11C C12G C13A,1.18
19,U7A G9A U11C C12G C13U,1.15
20,U7A G9A U11C C12G C13G,1.17
21,U7A G9A U10C U11A C12A,1.24

row,Variant,aptazyme ON/OFF ratio
1,U7A G9A U10C U11A C12G,1.27
2,U7A G9A U10C U11A C12U,1.31
3,U7A G9C C12U C13U,1.1
4,U7A G9C C12U C13A,1.05
5,U7A G9C C12U C13G,1.07
6,U7A G9A U11G C13A,1.26
7,U7A G9A U11G C13U,1.38
8,U7A G9A U11G C13G,1.12
9,U7A C13U,1.58
10,U7A C13A,1.47
11,U7A C13G,1.11
12,U7A G9A U10G U11A C12G C13G,1.31
13,U7A G9A U10G U11A C12G C13U,1.17
14,U7A G9A U10G U11A C12G C13A,1.12
15,U7A G9A U10G U11G C12G C13U,1.16
16,U7A G9A U10G U11G C12G C13G,1.09
17,U7A G9A U10G U11G C12G C13A,1.2
18,U7A G9C U10A C12A C13A,1.14
19,U7A G9C U10A C12A C13U,1.23
20,U7A G9C U10A C12A C13G,1.09
21,U7A G9A U10A U11C C12A C13G,1.15
